Numbering of substitutions follows the chain as printed. Names may count otherwise. One block for each binder: values may come before it.
Molecular target: T1, recombinant human IgE (human, UniProt P01854-1 1-428)
T1 construct: made in-house (ALK); preloaded on immobilised FcεRIα in the displacement ELISA
Assay: IgE-FcεRIα displacement ELISA
Method: The displacement effect was tested using IgE-FcεRIα displacement ELISA assay. Maxisorp® microtiter plates (Thermo Scientific Nunc, Roskilde, Denmark) were coated with 100 μl streptavidin, 5 μg/ml (Thermo Scientific, Waltham, MA) for 18 h at 4° C. followed by wash with 300 μl washing buffer (PBS containing 0.05% Tween 20) using an AquaMax® 2000 plate washer (Molecular Devices, San Jose, CA). Remaining binding sites were blocked with 250 μl blocking buffer (PBS containing 2% BSA) for 2 h and washed with 300 μl washing buffer. Subsequently, the bound streptavidin was loaded with 100 μl (0.1 μg/ml) recombinant human FcεRIα (site specific biotinylated via avi-tag, made in-house, ALK, Hørsholm, Denmark) for 1 h and plates washed twice with 300 μl washing buffer. The bound receptor was then loaded with 100 μl recombinant human IgE (made in-house, ALK, Hørsholm, Denmark), 13 ng/ml (pre-titrated to reach an OD₄₅₀ signal in the range of 1.5-2.5 in the absence of displacement components) for 1h followed by three washes of 300 μl washing buffer.
displacement step: 100 μl sdAbs diluted in concentration series (pM-μM range) or blocking buffer only as a non-displacement negative control, were added to the ELISA wells and incubated for 1 h. Any IgE, displaced from the receptor by a sdAb was washed away by three washes of 300 μl washing buffer.
The ability of the various sdAbs to displace IgE from the receptor (FcεRIα) was evaluated by use of the ELISA based IgE-FcεRIα displacement assay. The percent displacement effect was calculated as the relative reduction in signal compared to the control with no sdAb added. The EC₅₀ values and the maximal effects were determined (table 15).

T1 sequence (P01854 other isoform, or with tags, fused parts or gaps): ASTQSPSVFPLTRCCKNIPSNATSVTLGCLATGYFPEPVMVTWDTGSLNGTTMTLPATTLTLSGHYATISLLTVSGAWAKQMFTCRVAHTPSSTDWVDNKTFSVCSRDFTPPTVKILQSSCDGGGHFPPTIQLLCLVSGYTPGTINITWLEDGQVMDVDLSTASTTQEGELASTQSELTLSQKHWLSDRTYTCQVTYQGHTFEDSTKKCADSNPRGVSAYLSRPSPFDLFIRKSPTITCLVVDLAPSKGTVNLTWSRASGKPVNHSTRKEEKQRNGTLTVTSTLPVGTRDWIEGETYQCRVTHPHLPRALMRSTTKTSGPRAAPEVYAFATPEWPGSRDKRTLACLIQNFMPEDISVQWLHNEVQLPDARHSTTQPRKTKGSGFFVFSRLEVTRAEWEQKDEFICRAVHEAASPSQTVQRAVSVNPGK

B1: CIgE4A1A1(GS)2 (Fc fusion)
chain 1: GPPCPPCPAPEFLGGPSVFLFPPKPKDTLMISRTPEVTCVVVDVSQEDPEVQFNWYVDGVEVHNAKTKPREEQFNSTYRVVSVLTVLHQDWLNGKEYKCKVSNKGLPSSIEKTISKAKGQPREPQVYTLPPCQEEMTKNQVSLWCLVKGFYPSDIAVEWESNGQPENNYKTTPPVLDSDGSFFLYSRLTVDKSRWQEGNVFSCSVMHEALHNHYTQKSLSLSLGKGGGGSGGGGSEVQLLESGGGLVQPGGSLRLSCAASGFTFGNYDMAWVRQAPGKRPEWVSSIDTGGDITHYADSVKGRFTISRDNAKNTLYLQMNSLRPEDTAVYWCATDEEYALGPNEFDYYGQGTLVTVSS
chain 2: B1 chain 1 with Y127C, C132S, W144S, L146A, Y185V
notes: also called CIgG4A1A1(G4S)2
EC50: 145 nM
Max effect: ~70%

B4: CIgE4A1A1(GS3) (Fc fusion)
chain 1: GPPCPPCPAPEFLGGPSVFLFPPKPKDTLMISRTPEVTCVVVDVSQEDPEVQFNWYVDGVEVHNAKTKPREEQFNSTYRVVSVLTVLHQDWLNGKEYKCKVSNKGLPSSIEKTISKAKGQPREPQVYTLPPCQEEMTKNQVSLWCLVKGFYPSDIAVEWESNGQPENNYKTTPPVLDSDGSFFLYSRLTVDKSRWQEGNVFSCSVMHEALHNHYTQKSLSLSLGKGGGGSGGGGSGGGGSEVQLLESGGGLVQPGGSLRLSCAASGFTFGNYDMAWVRQAPGKRPEWVSSIDTGGDITHYADSVKGRFTISRDNAKNTLYLQMNSLRPEDTAVYWCATDEEYALGPNEFDYYGQGTLVTVSS
chain 2: B4 chain 1 with Y127C, C132S, W144S, L146A, Y185V
notes: also called CIgG4A1A1(G4S)3
EC50: 36 nM
Max effect: ~85%

B7: CIgE4A1A1(GS)1 (Fc fusion)
chain 1: GPPCPPCPAPEFLGGPSVFLFPPKPKDTLMISRTPEVTCVVVDVSQEDPEVQFNWYVDGVEVHNAKTKPREEQFNSTYRVVSVLTVLHQDWLNGKEYKCKVSNKGLPSSIEKTISKAKGQPREPQVYTLPPCQEEMTKNQVSLWCLVKGFYPSDIAVEWESNGQPENNYKTTPPVLDSDGSFFLYSRLTVDKSRWQEGNVFSCSVMHEALHNHYTQKSLSLSLGKGGGGSEVQLLESGGGLVQPGGSLRLSCAASGFTFGNYDMAWVRQAPGKRPEWVSSIDTGGDITHYADSVKGRFTISRDNAKNTLYLQMNSLRPEDTAVYWCATDEEYALGPNEFDYYGQGTLVTVSS
chain 2: B7 chain 1 with Y127C, C132S, W144S, L146A, Y185V
notes: label printed with IgE4/(GS); also called CIgG4A1A1(G4S)1
Max effect: ~40%

Results, then the binder that gave them:

Max effect: < 20%
B2: CIgG4A1A1(RS) (Fc fusion)
chain 1: GPPCPPCPAPEFLGGPSVFLFPPKPKDTLMISRTPEVTCVVVDVSQEDPEVQFNWYVDGVEVHNAKTKPREEQFNSTYRVVSVLTVLHQDWLNGKEYKCKVSNKGLPSSIEKTISKAKGQPREPQVYTLPPCQEEMTKNQVSLWCLVKGFYPSDIAVEWESNGQPENNYKTTPPVLDSDGSFFLYSRLTVDKSRWQEGNVFSCSVMHEALHNHYTQKSLSLSLGKRSEVQLLESGGGLVQPGGSLRLSCAASGFTFGNYDMAWVRQAPGKRPEWVSSIDTGGDITHYADSVKGRFTISRDNAKNTLYLQMNSLRPEDTAVYWCATDEEYALGPNEFDYYGQGTLVTVSS
chain 2: B2 chain 1 with Y127C, C132S, W144S, L146A, Y185V

Max effect: > 95%
B3: NIgG4B1A2(RS) (Fc fusion)
chain 1: QVQLQESGGGLVQTGGSLRLSCAVHGRTFSNTGMGWFRQAPGNERQFVAIISPSGTSTYYADSVKGRFTISRDPAKNTVYLQMNSLKMDDTAVYYCAASYGSNWSTLRHQRRNEYDAWGQGTQVAVSRSGPPCPPCPAPEFLGGPSVFLFPPKPKDTLMISRTPEVTCVVVDVSQEDPEVQFNWYVDGVEVHNAKTKPREEQFNSTYRVVSVLTVLHQDWLNGKEYKCKVSNKGLPSSIEKTISKAKGQPREPQVYTLPPCQEEMTKNQVSLWCLVKGFYPSDIAVEWESNGQPENNYKTTPPVLDSDGSFFLYSRLTVDKSRWQEGNVFSCSVMHEALHNHYTQKSLSLSLGK
chain 2: EVQLLESGGGLVQPGGSLRLSCAASGFRFGNYDMAWVRQAPGKRYEWVSSIDTGGDITHYADSVKGRFTISRDNAKNTLYLQMNSLRPEDTAEYWCATDEEYALGPNEFDYYGQGTLVTVSRSGPPCPPCPAPEFLGGPSVFLFPPKPKDTLMISRTPEVTCVVVDVSQEDPEVQFNWYVDGVEVHNAKTKPREEQFNSTYRVVSVLTVLHQDWLNGKEYKCKVSNKGLPSSIEKTISKAKGQPREPQVCTLPPSQEEMTKNQVSLSCAVKGFYPSDIAVEWESNGQPENNYKTTPPVLDSDGSFFLVSRLTVDKSRWQEGNVFSCSVMHEALHNHYTQKSLSLSLGK

EC50: 230 nM
B5: NIgG4A1A1(G4S)2 (Fc fusion)
chain 1: EVQLLESGGGLVQPGGSLRLSCAASGFTFGNYDMAWVRQAPGKRPEWVSSIDTGGDITHYADSVKGRFTISRDNAKNTLYLQMNSLRPEDTAVYWCATDEEYALGPNEFDYYGQGTLVTVSSGGGGSGGGGSGPPCPPCPAPEFLGGPSVFLFPPKPKDTLMISRTPEVTCVVVDVSQEDPEVQFNWYVDGVEVHNAKTKPREEQFNSTYRVVSVLTVLHQDWLNGKEYKCKVSNKGLPSSIEKTISKAKGQPREPQVYTLPPCQEEMTKNQVSLWCLVKGFYPSDIAVEWESNGQPENNYKTTPPVLDSDGSFFLYSRLTVDKSRWQEGNVFSCSVMHEALHNHYTQKSLSLSLGK
chain 2: B5 chain 1 with Y259C, C264S, W276S, L278A, Y317V

EC50: 310 nM
B6: NIgG4A1A1(G4S)3 (Fc fusion)
chain 1: EVQLLESGGGLVQPGGSLRLSCAASGFTFGNYDMAWVRQAPGKRPEWVSSIDTGGDITHYADSVKGRFTISRDNAKNTLYLQMNSLRPEDTAVYWCATDEEYALGPNEFDYYGQGTLVTVSSGGGGSGGGGSGGGGSGPPCPPCPAPEFLGGPSVFLFPPKPKDTLMISRTPEVTCVVVDVSQEDPEVQFNWYVDGVEVHNAKTKPREEQFNSTYRVVSVLTVLHQDWLNGKEYKCKVSNKGLPSSIEKTISKAKGQPREPQVYTLPPCQEEMTKNQVSLWCLVKGFYPSDIAVEWESNGQPENNYKTTPPVLDSDGSFFLYSRLTVDKSRWQEGNVFSCSVMHEALHNHYTQKSLSLSLGK
chain 2: B6 chain 1 with Y264C, C269S, W281S, L283A, Y322V
